Data published in patent publication US5559213A, “Polyethylene-protein conjugates” (Hoffmann-La Roche Inc., priority 1995, dated 1996).

Experiments:
[1] = target: T1, IL-1 receptor on EL-4 membranes (Mus musculus, UniProt P13504); assay: IL-1 radioreceptor competition binding assay
T1 construct: incubated at varying concentrations with EL-4 membranes; endogenous in cells; host or cells: EL-4 cell membranes
T1 sequence (P13504 20-576): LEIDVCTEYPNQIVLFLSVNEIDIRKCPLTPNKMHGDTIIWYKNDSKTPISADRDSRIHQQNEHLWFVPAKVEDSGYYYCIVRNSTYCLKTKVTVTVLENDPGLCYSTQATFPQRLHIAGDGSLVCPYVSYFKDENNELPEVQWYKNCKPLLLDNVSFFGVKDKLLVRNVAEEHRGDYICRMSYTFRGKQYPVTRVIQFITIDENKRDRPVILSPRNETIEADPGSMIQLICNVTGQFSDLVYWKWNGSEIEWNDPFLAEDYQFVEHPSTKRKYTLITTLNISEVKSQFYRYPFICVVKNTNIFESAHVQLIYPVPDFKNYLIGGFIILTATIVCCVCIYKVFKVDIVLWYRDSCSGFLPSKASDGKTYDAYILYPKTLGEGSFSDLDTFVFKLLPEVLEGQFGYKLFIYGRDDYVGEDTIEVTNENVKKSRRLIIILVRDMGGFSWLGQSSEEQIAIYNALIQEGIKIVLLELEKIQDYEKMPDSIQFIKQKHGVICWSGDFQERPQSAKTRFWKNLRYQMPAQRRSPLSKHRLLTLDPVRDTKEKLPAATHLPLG
Method: Pegylated IL-1ra was purified from the reaction mixture using hydrophobic exchange chromatography (Bio-Rad; HRLC MP7 HlC). A linear gradient with decreasing salt concentrations from 0.43 to 0.0M (NH4)2 SO4 in 50 mM sodium phosphate pH 7.0 in 20 minutes was used to separate pegylated IL-1ra and unmodified IL-1ra. Aliquots of fractions were evaluated by SDS-PAGE and pooled fractions were assayed in an IL-1 radioreceptor competition binding assay. [Kilian et al. J. Immunol., 136, 4509, (1986)]. Briefly, IL-1ra and PEG-IL-1ra were incubated at varying concentrations with EL-4 membranes for 30 min at 37° C. The [^125 I]IL-1 alpha was then added and the incubation continued for 30 min. The assay was terminated by vacuum filtration and the collection of cell bound [^125 I]IL-1 on filter plates. The concentration of IL-1ra or PEG-IL-1ra that inhibits binding of [^125l]IL- 1 by 50% (IC50) was determined graphically. […] The pegylated IL-1ra mixture retained its ability-to bind to the IL-1 receptor on EL-4 membranes within a factor 2 to 3 fold relative to the unmodified II1-1ra.

[2] = test system: rIL-1alpha induction of interleukin-6; assay: Inhibition of rIL-1alpha induction of interleukin-6 in mice (pharmacodynamics); format: in vivo
Method: The pharmacodynamics of IL-1ra protein was evaluated in vivo by the ability of the IL-1ra to inhibit rIL-1alpha induction of interleukin-6. Serum from mice treated with rIL-1alpha contain high levels of IL-6, [McIntosh et al., Immunol. 143: 162, (1989)]. The administration of unmodified IL-1ra together with IL-1alpha (0 hr time point) inhibits the induction of IL-6. This test system was used to compare the pharmacodynamic properties of unmodified and PEG IL-1ra. […] Three hours later, serum samples were collected. IL-6 levels (units) were determined using a modification of an IL-6 assay that has been previously described [Van Snick et al., Proc. Natl. Acad. Sci. USA 83:9679, (1986)]. In the IL.-6 assay, B9 hybridoma cells were treated with two fold serial dilutions of the test sera in 96-well microtiter plates. Following a 3 day incubation at 37° C. in a humidified atmosphere comprised of 5% CO2 and 95% air, the wells were pulsed with 0.5 uCi of tritiated thymidine and incubated for an additional 18 hr. The cells were then harvested onto glass fiber filters and the level of tritiated thymidine incorporation was determined by scintillation counting. IL-6 activity is expressed as U/ml. IL-6 units are defined as the inverse of the serum dilution which produces half-maximal tritiated thymidine incorporation compared to a reference standard.

[3] = Pharmacokinetic profile: serum IL-1ra levels in mice after subcutaneous administration; format: in vivo; settings: for Serum Concentration of IL-1ra: Table D2 (pegylated as in Example 6a), 100 ug s.c.; for Serum Level of IL-1ra: Table D4 (reagent of Example 11a); for Serum IL-1ra: Table D5 (reagent of Example 18a)
Method: To determine the pharmacokinetic profile of PEG-IL-1ra species, C57BF/6 mice were administered 100 ug of […] or pegylated IL-1ra species subcutaneously. Serum samples were collected after 1, 2, 3, 4 and 6 hours from mice that received unmodified IL-1ra and after 2, 4, 8, 10, and 24 hours from mice that received PEG-IL-1ra. The serum levels were determined in the EL4 membrane binding assay described in Example 6.

## IL-1ra: Interleukin-1 receptor antagonist, unmodified; apparent molecular weight 19 kD by SDS-PAGE
[1]; Example 6, Table VI: IL-1ra conjugated with reagent of Example 5, label = apparent molecular weight
  IC50: 2.0 ng/mL
[1]; Example 6A, Table VII: IL-1ra conjugated with reagent of Example 5a, label = apparent molecular weight (kD)
  IC50: 1.6 ng/mL
[1]; Example 12, Table XII: IL-1ra pegylated with reagent of Example 11, label = apparent molecular weight (kD)
  IC50: 2.0 ng/mL
[1]; Example 12A, Table XIII: IL-1ra pegylated with reagent of Example 11a, label = apparent molecular weight (kD)
  IC50: 0.8 ng/mL
[1]; Example 19, Table XIV: IL-1ra pegylated with reagent of Example 18, label = apparent molecular weight (kD)
  IC50: 2.0 ng/mL
[1]; Example 19A, Table XV: IL-1ra pegylated with reagent of Example 18a, label = apparent molecular weight (kD)
  IC50: 1.5 ng/mL
[1]; Example 26, Table XVIII: IL-1ra pegylated with reagent of Example 23, label = apparent molecular weight (kD)
  IC50: 2.0 ng/mL
[1]; Example 29, Table XX: IL-1ra pegylated with reagent of Example 28, label = molecular weight (kD)
  IC50: 1.4 ng/mL
[1]; Example 32, Table XXII: rIL-1ra conjugated with reagent of Example 31, label = apparent molecular weight (kD)
  IC50: 1.5 ng/mL
[1]; Example 38, Table XXV: rIL-1ra conjugated with the reagent described in Example 35 (so in the source), label = apparent molecular weight (kD)
  IC50: 1.0 ng/mL
[1]; IC50 of IL-1ra in this assay (general statement)
  IC50: 1 to 2.0 ng/mL
[2]; Example 12, within 6 hours of administration
  inhibition of the IL-1 response: less than 50%
[2]; Table D1 (reagent of Example 5), 200 ug s.c. 0 hr prior to 0.2 ug rIL-1 alpha, IL-1 alone 28852 U/ml
  IL-6: 772 Units/ml
[2]; Table D1 (reagent of Example 5), 200 ug s.c. 6 hr prior to 0.2 ug rIL-1 alpha, IL-1 alone 28852 U/ml
  IL-6: 8361 Units/ml
[2]; Table D1 (reagent of Example 5), 200 ug s.c. 24 hr prior to 0.2 ug rIL-1 alpha, IL-1 alone 28852 U/ml
  IL-6: 22525 Units/ml
[2]; Table D1 (reagent of Example 5), 200 ug s.c. 48 hr prior to 0.2 ug rIL-1 alpha, IL-1 alone 28852 U/ml
  IL-6: 18485 Units/ml
[2]; Table D1 (reagent of Example 5), 200 ug s.c. 72 hr prior to 0.2 ug rIL-1 alpha, IL-1 alone 28852 U/ml
  IL-6: 13220 Units/ml
[2]; Table D3 (reagent of Example 11), 0 hr prior to IL-1 administration, IL-1 alone 27283 u/ml
  IL-6: 4789 Units/ml
[2]; Table D3 (reagent of Example 11), 6 hr prior to IL-1 administration, IL-1 alone 27283 u/ml
  IL-6: 15324 Units/ml
[2]; Table D3 (reagent of Example 11), 24 hr prior to IL-1 administration, IL-1 alone 27283 u/ml
  IL-6: 24841 Units/ml
[2]; Table D3 (reagent of Example 11), 48 hr prior to IL-1 administration, IL-1 alone 27283 u/ml
  IL-6: 16348 Units/ml
[2]; Table D3 (reagent of Example 11), 72 hr prior to IL-1 administration, IL-1 alone 27283 u/ml
  IL-6: 12067 Units/ml
[2]; Table D6 (reagent of Example 18), 0 hr prior to 0.05 ug rIL-1 alpha, IL-1 alone 9203 units/ml
  IL-6: 521 Units/ml
[2]; Table D6 (reagent of Example 18), 6 hr prior to 0.05 ug rIL-1 alpha, IL-1 alone 9203 units/ml
  IL-6: 2334 Units/ml
[2]; Table D6 (reagent of Example 18), 24 hr prior to 0.05 ug rIL-1 alpha, IL-1 alone 9203 units/ml
  IL-6: 13486 Units/ml
[2]; Table D6 (reagent of Example 18), 48 hr prior to 0.05 ug rIL-1 alpha, IL-1 alone 9203 units/ml
  IL-6: 16577 Units/ml
[2]; Table D6 (reagent of Example 18), 72 hr prior to 0.05 ug rIL-1 alpha, IL-1 alone 9203 units/ml
  IL-6: 12800 Units/ml
[3]; 1 hr after administration
  Serum Concentration of IL-1ra: 400
  Serum Level of IL-1ra: 220 ng/mL
  Serum IL-1ra: 580 ng/mL
[3]; 2 hr after administration
  Serum Concentration of IL-1ra: 130
  Serum Level of IL-1ra: 33 ng/mL
  Serum IL-1ra: 75 ng/mL
[3]; 4 hr after administration
  Serum Concentration of IL-1ra: 15
  Serum Level of IL-1ra: 5.3 ng/mL
  Serum IL-1ra: 30 ng/mL
[3]; 6 hr after administration
  Serum Concentration of IL-1ra: 16
  Serum Level of IL-1ra: 1.5 ng/mL
  Serum IL-1ra: 8 ng/mL
[3]; time not given, line between 2 and 4 hr
  Serum Concentration of IL-1ra: 40
[3]; 3 hr after administration
  Serum Level of IL-1ra: 13 ng/mL
  Serum IL-1ra: 30 ng/mL
